Assay results reported in paper PMC6035221, “Interaction between parasite-encoded JAB1/CSN5 and macrophage migration inhibitory factor proteins attenuates its proinflammatory function” (Scientific Reports, 2018).

Target: T1, GST-tagged full-length EhJAB1 (Entamoeba histolytica, UniProt C4LTS3 1-318)
T1 construct: EhJAB1 of Entamoeba histolytica, EHI_050500, full length (gene of 957 base pairs; deletions count to residue 318), codon optimized; Cloned in pDEST15 and sub-cloned in pGEX-4T1; also called GST-EhJAB1; GST-JAB1; source: E. coli BL21(DE3); purified on glutathione-sepharose (BLI)
T1 sequence (looked up): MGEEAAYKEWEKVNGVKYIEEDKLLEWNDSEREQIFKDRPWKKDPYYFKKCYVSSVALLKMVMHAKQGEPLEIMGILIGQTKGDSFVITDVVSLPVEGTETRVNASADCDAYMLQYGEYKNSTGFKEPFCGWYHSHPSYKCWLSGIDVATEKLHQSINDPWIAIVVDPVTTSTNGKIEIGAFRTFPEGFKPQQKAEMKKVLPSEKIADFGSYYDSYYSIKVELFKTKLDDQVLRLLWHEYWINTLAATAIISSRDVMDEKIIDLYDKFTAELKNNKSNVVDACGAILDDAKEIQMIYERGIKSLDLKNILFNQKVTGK
Test: BLI; GST-EhJAB1 or GST loaded on anti-GST biosensors; EhMIF 5 to 80 nM (2-fold series); 1x DPBS, 0.1% BSA, 0.02% Tween 20; association 600 s, dissociation 600 s
Conditions: both partners purified

B1: Entamoeba histolytica MIF (EhMIF), recombinant (natural protein)
chain: MPHALITLSADITEEIKKEIAHESMKILSEVIGKPISYCATQVVTSVGGFGGKIVKSAFIDIKSISGLKGKQEGLSDRYCKLLEQKAGIEGGNIYLNFTEMTGNNWGYDHSTF
  Kd: 38.6 nM
